Common to all, as to assay type: binding
For assay [1], the target named is T1, human EphA4 (Homo sapiens, UniProt P54764).
T1 construct: made in house; not restated for the human SEAP-His protein
Description: Affinity of humanized antibodies by SPR (Biacore T200). Conditions: human EphA4 extracellular region-SEAP-His; for ka / kd: 1:1 binding model; for Kd: KD=kd/ka. As for the experimental part: The binding affinity of each anti-EphA4 monoclonal humanized antibody obtained in Example 16 for human EphA4 was determined by surface plasmon resonance (SPR) using Biacore T200 (GE Healthcare). First, for the assay of antibody A, a rat anti-mouse IgG1 antibody produced with a conventional method by immunizing rat with mouse IgG1 antibody was immobilized on sensor chip CM5. The immobilization of the rat anti-mouse IgG1 antibody on sensor chip CM5 was performed by the amine coupling method using N-hydroxysuccinimide (NHS) and N-ethyl-N′-(3-dimethylaminopropyl)carbodiimide hydrochloride (EDC). Ethanolamine was used in blocking (the sensor chip and the reagents for immobilization were all manufactured by GE Healthcare). The antibody was diluted with a buffer solution for immobilization (10 mM sodium acetate, pH 4.5) and immobilized on the sensor chip according to the protocol attached to Biacore T200. For the assay of each humanized monoclonal antibody, a protein A chip (GE Healthcare, 29-1383-03) was used. Antibody A or the humanized monoclonal antibody was diluted with a running buffer solution HBS-EP (GE Healthcare), injected onto only flow cell 2 for 120 seconds, and captured (captured amount: approximately 30 to 60 RU). Subsequently, human EphA4 extracellular region-SEAP-His protein serially diluted in the range of 50, 16.7, 5.6, 1.9, and 0.6 nM using HBS-EP was sequentially added from the lower toward higher concentration sides without regeneration operation. Binding reaction curves were sequentially observed at the time of the addition (association phase, for 120 sec) and after the completion of the addition (dissociation phase, for 900 sec). After the completion of each observation, the sensor chip was regenerated by the addition of 3 M MgCl2 (for 60 sec) or 10 mM Glycine-HCl pH 1.5 (for 30 sec). The obtained binding reaction curves were subjected to fitting analysis with 1:1 binding models using software BIA evaluation attached to the system to calculate the affinity (KD=kd/ka) for human EphA4 (Table 6).

Assay [2] addresses T2, human EphA6 (Homo sapiens, UniProt Q9UF33).
T2 construct: a protein of the extracellular region of each human Eph receptor fused with the SEAP protein and the His tag; made in house; host or cells: Expi293F cells (culture supernatant)
T2 sequence (Q9UF33 23-550 limits assumed): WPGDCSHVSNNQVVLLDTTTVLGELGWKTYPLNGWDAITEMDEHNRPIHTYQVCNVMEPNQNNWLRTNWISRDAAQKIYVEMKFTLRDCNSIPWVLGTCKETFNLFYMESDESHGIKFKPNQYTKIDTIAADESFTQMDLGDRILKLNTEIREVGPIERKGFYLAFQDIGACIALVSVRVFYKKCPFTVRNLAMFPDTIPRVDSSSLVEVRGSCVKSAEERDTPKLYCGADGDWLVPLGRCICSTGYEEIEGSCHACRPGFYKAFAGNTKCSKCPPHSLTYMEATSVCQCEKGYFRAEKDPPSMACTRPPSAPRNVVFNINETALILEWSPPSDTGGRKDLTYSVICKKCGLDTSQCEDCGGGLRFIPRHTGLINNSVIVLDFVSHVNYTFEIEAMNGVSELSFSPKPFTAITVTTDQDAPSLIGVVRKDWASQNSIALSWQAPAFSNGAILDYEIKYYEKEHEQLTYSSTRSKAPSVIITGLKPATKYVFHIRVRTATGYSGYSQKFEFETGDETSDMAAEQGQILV
Description: Selectivity ELISA of humanized antibodies for human Eph receptor. As to conditions: coated protein 1 nM. The source says: (§1) According to the method described in Example 7, a DNA sequence encoding the signal sequence and the extracellular region of each human Eph receptor (EphA1, EphA2, EphA3, EphA4, EphA5, EphA6, EphA7, EphA8, EphA10, EphB1, EphB2, EphB3, EphB4, and EphB6) was amplified by RT-PCR using tissue-derived total RNA and cloned into a pENTR1A vector (Invitrogen/Life Technologies) having a DNA sequence encoding SEAP protein and histidine tag. Next, the DNA sequence encoding the signal sequence and the extracellular region of each human Eph receptor, SEAP protein, and histidine tag was transferred to a pcDNA3.1_rfcB vector through LR reaction using Gateway System (Invitrogen/Life Technologies) to construct a vector for the expression of a protein of the extracellular region of each human Eph receptor fused with the SEAP protein and the His tag (referred to as “Eph receptor extracellular region-SEAP-His protein”) (this vector is referred to as “Eph receptor extracellular region-SEAP-His protein expression vector”).
(§2) Next, each human Eph receptor extracellular region-SEAP-His protein expression vector was transferred to Expi293F cells (Gibco/Thermo Fisher Scientific) using Expi293 expression system (Gibco/Thermo Fisher Scientific). After incubation (5% CO2, 37° C.) for 5 days, the culture supernatant was recovered and centrifuged at 1500 rpm at room temperature for 5 minutes. The centrifugation supernatant was filtered through a 0.45-μm filter (Merck Millipore).
(§3) Each anti-EphA4 monoclonal humanized antibody obtained in Example 16 was evaluated for its binding activity against each human Eph receptor according to the following steps.
(§4) Each well of a 96-well plate (Nunc) was coated with a rabbit anti-6-His antibody (Bethyl Laboratories). Each well was […] After washing with 0.05% Tween 20/PBS (Nacalai Tesque) three times, the SEAP-His protein of human EphA1, EphA2, EphA3, EphA4, EphA5, EphA6, EphA7, EphA8, EphA10, EphB1, EphB2, EphB3, EphB4, or EphB6 was added (final concentration: 1 nM) to each well and incubated at room temperature for 1 hour. After washing three times, the humanized antibody was added to each well and incubated at room temperature for 1 hour. After washing three times, a horseradish peroxidase-labeled donkey […] IgG antibody (Jackson ImmunoResearch Laboratories) was added thereto and incubated at room temperature for 1 hour. After washing three times, TMB Microwell Peroxidase Substrate System (Kirkegaard & Perry Laboratories (KPL)) was added to each well. After confirmation of moderate color development, an equal amount of a reaction stopping solution (1N H2SO4, Wako Pure Chemical Industries) was added to each well. The absorbance at 450 nm was read using a microplate reader (Thermo Fisher Scientific).

In assay [3] the target is T3, human EphA2 (Homo sapiens, UniProt P29317).
T3 construct: a protein of the extracellular region of each human Eph receptor fused with the SEAP protein and the His tag; made in house; host or cells: Expi293F cells (culture supernatant)
The description is as above. As to conditions: coated protein 1 nM.
Source text: as §1, §2, §3, §4

T3 sequence (P29317 24-537 limits assumed): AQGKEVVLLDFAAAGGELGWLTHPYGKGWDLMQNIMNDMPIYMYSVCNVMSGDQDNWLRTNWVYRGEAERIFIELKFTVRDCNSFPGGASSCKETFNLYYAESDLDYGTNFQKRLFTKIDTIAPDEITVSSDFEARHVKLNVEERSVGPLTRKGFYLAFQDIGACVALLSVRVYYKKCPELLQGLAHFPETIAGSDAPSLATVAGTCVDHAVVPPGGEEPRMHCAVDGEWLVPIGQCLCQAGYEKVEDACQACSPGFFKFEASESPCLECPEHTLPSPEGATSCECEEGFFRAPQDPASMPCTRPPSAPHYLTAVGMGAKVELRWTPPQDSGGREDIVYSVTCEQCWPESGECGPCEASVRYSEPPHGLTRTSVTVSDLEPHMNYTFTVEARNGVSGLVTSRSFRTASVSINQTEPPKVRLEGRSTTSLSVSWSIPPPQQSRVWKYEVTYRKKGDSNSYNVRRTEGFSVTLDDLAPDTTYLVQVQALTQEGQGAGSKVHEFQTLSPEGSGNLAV
T1 sequence (P54764 20-547): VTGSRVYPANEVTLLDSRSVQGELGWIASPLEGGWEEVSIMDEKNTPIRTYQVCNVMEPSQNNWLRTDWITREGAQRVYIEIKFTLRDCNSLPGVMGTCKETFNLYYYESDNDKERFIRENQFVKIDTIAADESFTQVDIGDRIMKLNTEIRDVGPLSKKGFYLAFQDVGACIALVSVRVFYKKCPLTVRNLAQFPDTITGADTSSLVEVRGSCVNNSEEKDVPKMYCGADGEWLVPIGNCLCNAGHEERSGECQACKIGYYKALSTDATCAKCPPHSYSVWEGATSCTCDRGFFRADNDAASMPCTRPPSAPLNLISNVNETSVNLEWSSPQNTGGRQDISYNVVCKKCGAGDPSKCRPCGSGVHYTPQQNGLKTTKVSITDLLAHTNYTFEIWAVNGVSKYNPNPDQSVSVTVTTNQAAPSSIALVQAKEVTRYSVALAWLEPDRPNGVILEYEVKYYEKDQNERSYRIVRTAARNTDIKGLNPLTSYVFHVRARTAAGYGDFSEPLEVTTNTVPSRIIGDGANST

B1: 92 (antibody, V domains shown)
VL: DIQMTQSPSSLSASVGDRVTITCRASENIYRNLAWYQQKPGKAPQLLLYAATNLADGVPSRFSGSGSGTDYTLTISSLQPEDFATYYCQHFWGTPWTFGQGTKVEIK
VH: QIQLVQSGSELKKPGASVKVSCKASGYTFTDYSMHWVRQAPGQGLKWMGWINTETGEPTYADDFKGRFVFSLDTSVSTAYLQISSLKAEDTAVYYCARIPLYYYGSRYWYFDVWGQGTTVTVSS
modifications: constant regions without entry; synthetic humanized antibody light chain variable region sequence; synthetic humanized antibody heavy chain variable region sequence
Usually Kd stands for the concentration at which binding is half-saturated. With B1, in assay [1], the ka was 330000 M⁻¹ s⁻¹, the kd stood at 0.00043 s⁻¹ and the equilibrium dissociation constant (Kd) was determined as 1300 pM. Besides, the “hEphA6-SEAP-: absorbance at 450 nm, percentage with respect to hEphA4-SEAP-His as 100%” value in assay [2] is 9.6%. In addition, the “hEphA2-SEAP-: absorbance at 450 nm, percentage with respect to hEphA4-SEAP-His as 100%” value in assay [3] came out at 6.9%.

B2: 96 (antibody, V domains shown)
VL: EIVMTQSPATLSVSPGERATLSCRASENIYRNLAWYQQKPGQSPRLLIYAATNLADGIPARFSGSGSGTEYTLTISSLQSEDFAVYYCQHFWGTPWTFGQGTKVEIK
VH: QVQLVQSGSELKKPGASVKVSCKASGYTFTDYSMHWVRQAPGQGLKWMGWINTETGEPTYADDFKGRFVFSLDTSVSTAYLQISSLKAEDTAVYYCARIPLYYYGSRYWYFDVWGQGTTVTVSS
modifications: constant regions without entry; synthetic humanized antibody light chain variable region sequence; synthetic humanized antibody heavy chain variable region sequence
In assay [1], B2 displayed a ka of 270000 M⁻¹ s⁻¹, a kd of 0.00031 s⁻¹ and a Kd of 1100 pM. For the same molecule, in assay [2], the “hEphA6-SEAP-: absorbance at 450 nm, percentage with respect to hEphA4-SEAP-His as 100%” value was 9.8%. For the same molecule, in assay [3], the “hEphA2-SEAP-: absorbance at 450 nm, percentage with respect to hEphA4-SEAP-His as 100%” value was 5.3%.

B3: 95 (antibody, V domains shown)
VL: EIVMTQSPATLSVSPGERATLSCRASENIYRNLAWYQQKPGQSPRLLIYAATNLADGIPARFSGSGSGTEYTLTISSLQSEDFAVYYCQHFWGTPWTFGQGTKVEIK
VH: QVQLVQSGSELKKPGASVKVSCKASGYTFTDYSMHWVRQAPGQGLEWMGWINTETGEPTYADDFKGRFVFSLDTSVSTAYLQISSLKAEDTAVYYCARIPLYYYGSRYWYFDVWGQGTTVTVSS
modifications: constant regions without entry; synthetic humanized antibody light chain variable region sequence; synthetic humanized antibody heavy chain variable region sequence
With B3, in assay [1], the ka stood at 300000 M⁻¹ s⁻¹, the kd turned out to be 0.00031 s⁻¹ and binding was characterised by a dissociation constant (Kd) of 1000 pM. Besides, the “hEphA6-SEAP-: absorbance at 450 nm, percentage with respect to hEphA4-SEAP-His as 100%” value in assay [2] came out at 7.0%. For the same molecule, the “hEphA2-SEAP-: absorbance at 450 nm, percentage with respect to hEphA4-SEAP-His as 100%” value in assay [3] came to 4.2%.

B4: 71 (antibody, V domains shown)
VH: QIQLVQSGSELKKPGASVKVSCKASGYTFTDYSMHWVRQAPGQGLKWMGWINTETGEPTYAQGFTGRFVFSLDTSVSTAYLQISSLKAEDTAVYYCARIPLYYYGSRYWYFDVWGQGTTVTVSS
VL: EIVMTQSPATLSVSPGERATLSCRASENIYRNLAWYQQKPGQSPRLLIYAATNLADGIPARFSGSGSGTEYTLTISSLQSEDFAVYYCQHFWGTPWTFGQGTKVEIK
modifications: synthetic humanized antibody heavy chain variable region sequence; synthetic humanized antibody light chain variable region sequence
As to B4, in assay [1], the ka is 280000 M⁻¹ s⁻¹, the kd is 0.00023 s⁻¹ and binding was put at a Kd of 820 pM. In addition, in assay [2], the “hEphA6-SEAP-: absorbance at 450 nm, percentage with respect to hEphA4-SEAP-His as 100%” value is listed as 9.2%. In assay [3], the “hEphA2-SEAP-: absorbance at 450 nm, percentage with respect to hEphA4-SEAP-His as 100%” value is 5.7%.

B5: 93 (antibody, V domains shown)
VL: EIVMTQSPATLSVSPGERATLSCRASENIYRNLAWYQQKPGQSPRLLIYAATNLADGIPARFSGSGSGTEYTLTISSLQSEDFAVYYCQHFWGTPWTFGQGTKVEIK
VH: QVQLVQSGSELKKPGASVKVSCKASGYTFTDYSMHWVRQAPGQGLEWMGWINTETGEPTYAQGFTGRFVFSLDTSVSTAYLQISSLKAEDTAVYYCARIPLYYYGSRYWYFDVWGQGTTVTVSS
modifications: constant regions without entry; synthetic humanized antibody light chain variable region sequence; synthetic humanized antibody heavy chain variable region sequence
In assay [1], B5 registered a ka of 310000 M⁻¹ s⁻¹, a kd of 0.00024 s⁻¹ and a Kd of 770 pM. Besides, the “hEphA6-SEAP-: absorbance at 450 nm, percentage with respect to hEphA4-SEAP-His as 100%” value in assay [2] is 7.1%. The “hEphA2-SEAP-: absorbance at 450 nm, percentage with respect to hEphA4-SEAP-His as 100%” value in assay [3] is 5.0%.

B6: 94 (antibody, V domains shown)
VL: EIVMTQSPATLSVSPGERATLSCRASENIYRNLAWYQQKPGQSPRLLIYAATNLADGIPARFSGSGSGTEYTLTISSLQSEDFAVYYCQHFWGTPWTFGQGTKVEIK
VH: QVQLVQSGSELKKPGASVKVSCKASGYTFTDYSMHWVRQAPGQGLKWMGWINTETGEPTYAQGFTGRFVFSLDTSVSTAYLQISSLKAEDTAVYYCARIPLYYYGSRYWYFDVWGQGTTVTVSS
modifications: constant regions without entry; synthetic humanized antibody light chain variable region sequence; synthetic humanized antibody heavy chain variable region sequence
For B6, in assay [1], the ka turned out to be 260000 M⁻¹ s⁻¹, the kd was found to be 0.00024 s⁻¹ and binding was characterised by a dissociation constant (Kd) of 950 pM. Besides, in assay [2], the “hEphA6-SEAP-: absorbance at 450 nm, percentage with respect to hEphA4-SEAP-His as 100%” value is 8.6%. Also, the “hEphA2-SEAP-: absorbance at 450 nm, percentage with respect to hEphA4-SEAP-His as 100%” value in assay [3] was 6.4%.

For the origin of these results see patent US10428140B2, “Anti-EphA4 antibody” (EISAI R&D MANAGEMENT CO., LTD., priority 2015, dated 2019).
